# Test results: PMC2920948, “Structural Comparison of Human Mammalian Ste20-Like Kinases” (PLoS ONE, 2010)
# Target: the molecule itself
# Assay: AUC; sedimentation velocity; 30 µM unphosphorylated protein in 50 mM HEPES pH 7.5, 100 mM NaCl; 45,000 rpm; c(s) analysis with SEDFIT; monomer and dimer peaks
protein,measurement,value
"MST4 kinase domain (residues 1-300), unphosphorylated (domain or fragment, MST4 (mammalian Ste20-like kinase 4), human, residues 1-300 with the kinase domain, cloned from a Mammalian Gene Collection clone into pLIC-SGC1; Phosphorylation was removed with lambda-phosphatase; also called mammalian Ste20-like kinase 4; source: E. coli BL-21(DE3)-R3-pRARE2, purified (Ni-NTA, TEV cleavage, lambda-phosphatase, Superdex 200 SEC, MonoQ); not shown: His6, N-terminal, cleaved) not shown",stoichiometry N,2
